The data set in a line: yeast display, Sf9 membrane polyspecificity reagent, FACS + sequencing; frameworks hold sequencing errors. Put shortly:
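Sorting gates, low and high (top ~1%), were placed on anti-HA fluorescence to track expression and on streptavidin fluorescence to track reagent binding. A clone's polyreactivity label is taken from the gate it came out of. The reagent was 10% biotinylated, detergent-solubilized Sf9 membrane, applied for 1 hour at 4 °C to galactose-induced yeast display cells.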
On to “QVQLVESGGGLVQAGGSLRVSCAASGIIFNRYAMGWSREAPGKERELVAAITSSGGSTHYADSVKGRFTISRDNAKNTVYLQMNSLKPEDTAVYYCAKQFPYNYRYYLHYYYWGQGTQVTVSS”, for which the “polyreactivity (PSR sort gate)” value is reported as “low polyreactivity”.

With “QDQLVESGGGLFQAGGSLSLSCAASGNTFYWNAMGWYRQATGKEREFVAAISTTGVSTYYADSVKGRFTISRDNSKNTVYLQMNSLKPEDTAVYYCASEIIGYHTIYDYWGQGTQVTVSS”, the “polyreactivity (PSR sort gate)” value is reported as “low polyreactivity”.

On to “QVQLVESGGGLVQAGGSLRLSCAASGSILKGYTMGWYRQAPGKERELVAAITQTDNSTNYADSVKGRFTISRDNAKNTVYLQMNSLKPEDTAVYYCAASQLEFRRAFYYWGQGTQVTVSS”, for which the “polyreactivity (PSR sort gate)” value is “low polyreactivity”.

Consider “QVQLVESGGGLVQAGGSLRLSCAASGSTFYPNAMGWYRQAPGKERELVAAISWSGGRTYYADSVKGRFTISRDNAKNTVYLQMNSLKPEDTAVYYCNRYHRTSWRAKYDYWGQGTQVTVSS”, for which the “polyreactivity (PSR sort gate)” value was “high polyreactivity”.

Consider “QDQLVESGGGLVQAGGSLRLSCAASGFNFYKYAMGWYRQAPGKERELVAAITGRGGSTYYADSVKGRFTISRDNAKNTVYLRMNSLNPEDTAVYYCAASQRSGHPSYDYWGQGTQVTVSS”, for which the “polyreactivity (PSR sort gate)” value is “high polyreactivity”.

“QVQLVESGGGLVQAGGRLRLICAAYGSTFSLYALGWYRQAPGKERELVADINSGGGTYYADSVKGRFTISRDNAKNTVYLQMNSVKPEDTAVYYCNAPVARGEASYYWGHGTQVTVSS”: the “polyreactivity (PSR sort gate)” value is given as “high polyreactivity”.

Consider “QVQLVESGGGLVQAGGSLLLSCAASGLIFYPYAMGWYRQAPGKEREFVAAITWSGGSTRYADSVKGRFTISRDNAKNTVYLQMNSLKPEDTAVYYCAARYIWWYDYTYTGLDYWGQGTQVTVSS”, for which the “polyreactivity (PSR sort gate)” value was “high polyreactivity”.

“QVQLVESGRGLVQAGGSLRLSCAASGFTFVYYAMGWYRQAPGKERELVATISGNGGRTYYADSVKGRFTISRDNAKNTVYLQMNSLKPEDTAVYYCAALLYIRSVGYDYWGQGTQVTVSS”: the “polyreactivity (PSR sort gate)” value is “low polyreactivity”.

As to “QVQLVESAGGLVQAGGSLRLSCAASGGIFFSYAMGWYRQAPGKERELVAAIRTNGGTTYYADSVKGRFTISRDNAKNNVYLQMNSLTPEDTAVYYCASLPGGYYDRGEYDYWGQGTQVTVSS”, the “polyreactivity (PSR sort gate)” value is “low polyreactivity”.

As for “QVHLVESGGGLVQAGGSLRLSCAASGSIFWWYAMGWYRQAPGKERELVAAIRWSGTTAFYADSVKGRFTISRDYAKNTVYLQMNSLKPEDTAVYYCNAEGGIWGGTTGYDYWGQGTQVTVSS”, the “polyreactivity (PSR sort gate)” value was “low polyreactivity”.

Regarding “QVQLVESGGGLVQAGGSLRLSCAASGVILYFHAMGWYRQAPGKERELVAAITSDGGSTYYADSVKGRFTISRDDAKNTVYLQMNSLKPEDTAVYYCAADASTWYTEEYWGQGTQVTVSS”, the “polyreactivity (PSR sort gate)” value is on record as “low polyreactivity”.

For “QVQLVESGGGLVQAGGSLRLSCAASGSSFLSNTMGWYRQAPGKECELVAAITSGGDTSYADSVKGRFTISRDNAKNTVYLHMKILKADDTAVYYCNVDTSATCYSSEYDYWGQGTQVSVSS”, the “polyreactivity (PSR sort gate)” value is recorded as “low polyreactivity”.

Consider “QVQLVESGGGLVQAGGSLRLSCAASGSTFDFYAMGWYRQAPGKERELVAAITYSGGSTYYADSVKGRFTISRDNAKNTVYLQMNSLKPEDTAVYYCAAARVWQYSDFFLYYYWGQGTQVTVSS”, for which the “polyreactivity (PSR sort gate)” value is reported as “low polyreactivity”.

On to “QVQVVESGGGLVQAGGSLRLSCAASGRIFGYNAMGWYRQAPGKERELVAAISSGGSTYYADSVKGRFTISRDNAKNTVYLLMHSLKPEDTAVYYCAAEDYPPYPTVYDYWGQGTQVTVSS”, for which the “polyreactivity (PSR sort gate)” value is “low polyreactivity”.

In the case of “QVQIVESGGGLVQAGGSLRLSFAASGRIFYNYALGWYRQAPGKERELVAAISGSGGSTYYADSVKGRFTISRDNAKNTVYLQMNSLKPEVTAVYYCSTSGPQYYSRNFDYWGQGTQVTVSS”, the “polyreactivity (PSR sort gate)” value is “low polyreactivity”.

“QVQLVESGGGLVQAGGSLRLSCAASGFTFRWYAMGWYRQAPGKERELVAAISVSGGSTSYADSVKGRFTISRDNAKNTVYLQMNSLKPEDTAVYYCAAVRWAGYVSDYGYWGQGTQVTVSS”: the “polyreactivity (PSR sort gate)” value is listed as “high polyreactivity”.

In the case of “QVQLVESGGGLVQAGGRLRLSCAASGRTFFQYAMGWYRQAPGKERELVAAIRCSDSTYYADSVKGRFTISRDNAKNTVYLQMNSLKPEDTAVYYCAVRAYREFLPIVYKWWWERDHWGQGTQVTVSS”, the “polyreactivity (PSR sort gate)” value is on record as “low polyreactivity”.

Regarding “QVQLHESGGGLVQAGGSLRLSCAASGTISYAGPMGWYRQAPGKEREFVAGIGVGSNTNYADSVKGRYTIIRDNAKNTVYLQMNSLNPEDTAVYYCAVGGYDPLGRPYWGQGTQVTVSS”, the “polyreactivity (PSR sort gate)” value is reported as “low polyreactivity”.

Regarding “QVQLVESGGGLVQAGGSLRLSCAASGITFYSYAMGWYRQAPGKERELVAAISTTVGSTYYADSVKGRFTISRDNAKNTVYLQMNSLKPEDTAVYYCNAYRVYAWIEYNYWGQGTQVTVSS”, the “polyreactivity (PSR sort gate)” value is listed as “low polyreactivity”.

Take “QVQLVESGGGLVQAGGSLRLSCAASGSIIYFNAMGWYRQAPGKERELVAAITRSGGSTYYADSVKGRFTISRDNAKNTVYLQMNSLKPEDTAVYYCAAEVWRTYSVEYDYWGQGTQVTVSS”: the “polyreactivity (PSR sort gate)” value was “high polyreactivity”.

Take “QVQLVESGGGLVQAGGSLRLSCAASGFTFAYNAMGWYRQAPGKERELVAAISSSGGRTYYADSVKGRFTISRDNAKNTVYLQMNSLKPEDTAVYDCATRPKVAYEYDYWGQGTQVTVSS”: the “polyreactivity (PSR sort gate)” value is reported as “high polyreactivity”.

“QVHLVDSGGGLVQAGGILRLSCAASGRIFVNTMGCYRQAPGKEMELVAAITRSGVSTYYADSVKGRFTISRDNAKNTVYLQMNSLKPEDTAVYYCAAREWSGPKIYPPYRYNSWGQGTQVTVSS”: the “polyreactivity (PSR sort gate)” value was “high polyreactivity”.

“QVQLVESGAGLVQAGGSLRLSCAASGSTFPFYDMGWYRQAPGKEREFVAVISSSGGSTYYADSVKGRFTISRDNAKNTVYLQMNSLKPEDTAVYYCARRYPGRWYDYWGQGTQVTVSS”: the “polyreactivity (PSR sort gate)” value is given as “high polyreactivity”.

With “QVQLVESGGGLVQAGGSLRLSCAASGSTIIYNTMGWYRQAPGKERELVARITWSGGSTSYADSVKGRFTISRDNAKNTVYLQMNSLKPEDTAVYYCNRRVQARRYRYDYWGQGTQVTVSS”, the “polyreactivity (PSR sort gate)” value is on record as “high polyreactivity”.

With “QVQLQESGGGLVQAGGSLRPSCAPSGSISDGDPMAWYRQAPGEERELVATTVLGATTNYADSVKGRFTISRGNAENTVYLERYWLKPVETAVYYCAAPLRYDKGFSYWGQGTQVTVSS”, the “polyreactivity (PSR sort gate)” value was “low polyreactivity”.

As for “QVQLVESGGGLVQAGASLRLICAASGYTSSGYAMGRYRHAPGKERELVAAISADGGSTYYADSVKGRFTISRDNAKNTVYLQMNSLKPEDTAVYYCAKYTYPYTPYSWWYDYWGQGTQVTVSS”, the “polyreactivity (PSR sort gate)” value was “low polyreactivity”.

As for “QVQLVESGGGLVQAGGSLRLSCAASGFNFSLNAMGWYRQAPGKERELVAAISRSGGRTYYADSVKGRFTISRDNAKNTVYLQMNSLKPEDTAVYYCAAVPITWYAYDYWGQGTQVTVSS”, the “polyreactivity (PSR sort gate)” value is on record as “high polyreactivity”.

In the case of “QVQLVESGGGLVQAGGSLLLSCAASGSTFSYYGMGWYRQAPVKERELVAAIDYSGDSTYYADSVKGRFTISRDNSKNTVFLQMNSLKPEDTAVYYCAADDYPWNRYEYWGQGTQVTVSS”, the “polyreactivity (PSR sort gate)” value is given as “low polyreactivity”.

For “QVQLVESGGGLVQGGGSLRLSCAASGFIFDDNSMGWYRQAPGKERELVAAITSGGGSTYYADSVKGRFTISRDNAKNTVYLQMNSLKPEDTAVYYCNAVPSQHDEFDYWGQGTQVTVSS”, the “polyreactivity (PSR sort gate)” value is given as “low polyreactivity”.

As for “QEQLVESGGGLDQAGGSLRLSCAASGSTFYAYAMGWSRQATGKETELVAAISSDGTNYADSVKGRFTISRDNAKNTVYLQMNCLKPEDTAVYYCAADLLLTSSQDNDYWGQGTQVTVSS”, the “polyreactivity (PSR sort gate)” value is “low polyreactivity”.

As for “QVQLVESGGGLVQAGGSLRLSCAASGRTSIGNAMGWYRQAPGKERELVASISWSGGSTYYADSVKGRFTISRDNAKNTVYLQMNSLKPEDTAVYYCAKTAYFLVFNEHLHKKRYDSWGLGTQVTVSS”, the “polyreactivity (PSR sort gate)” value is on record as “low polyreactivity”.

Consider “QVQLVESGGGLVQAGGSLRLSCAGSGSTVSANALGSYRQAPGKDRELVAAISRRGGSTNYADSVKGRFTISRDNAKNTVYLQMNSLKPEDTAVYYCAGLYVPRSPFSYDYWGQGTQVTVSS”, for which the “polyreactivity (PSR sort gate)” value was “high polyreactivity”.

Take “QVQLQESGGLVQAGGLRLSCEASGSVSYQEGMGWYRQATGKERELVATISFGANTNYADSVKGRFTISRDNAKNTVYLQMNSLKTEDTAVFYCAADSLFDDYYGYWGQGTQVTVSS”: the “polyreactivity (PSR sort gate)” value is “low polyreactivity”.

In the case of “QVQLVESGGGLVQAGGSLRLSCAASGFNYGIYAMGWYRQAPGKERELVAAISRGGGSTYYADSVKGRFTISRDNAKNTVYLQMNSLKPEDTAVYYCAARYQSPYDYWGQGTQVTVSS”, the “polyreactivity (PSR sort gate)” value is on record as “high polyreactivity”.

For the sequence “QVQLVESGGGLVQAGGSLRLSCSASGSIFKRNAMGWYRQAPGKERELVAAITTRGGRTYYADSVKGRFTISRDNAKNTVYLQLNSLKPEDTAVYFCAVVPAAGSGGYGYSRYDYWGQGSQVTVSS”, the “polyreactivity (PSR sort gate)” value was “high polyreactivity”.

As for “QVQLVESGGGLVQAGGRLRLSWAASGSTFFGNAMGWYRQAPGKERELVAVITKGGGSTYYADSVKGRFTISRDNAKNTVYLQMNSLKPEDTAVYYCAKTYTSGYHRRYDYWGQGTQVTVSS”, the “polyreactivity (PSR sort gate)” value is given as “low polyreactivity”.

On to “QVQLVESGGGLDQAGGSLRLSCAASGFTFPRYAMGWYRQAPGKERELVAAITLIGGSTYYADSVKGRFTISRDNAKNTVYLQMNSLKPEDTAVYYCAATDRKVGVYHSYYYWGQGTQVTVSS”, for which the “polyreactivity (PSR sort gate)” value is reported as “low polyreactivity”.

For “QVQLVESGGGLVQAGGSLRLSCAASGYTFYPYAMGWYRQAPGKERELVAAITTSGGSTYYADSVKGRFTISRDNAKNTVYLQMNSLKPEDTAVYYCARDSLQVFYPYASDDYWGQGTQVTVSS”, the “polyreactivity (PSR sort gate)” value is given as “low polyreactivity”.

Turning to “QLQLVESGGGLDQAGGSLRLSCAASGGTFFKNAMGWYRQAPGNERELVAVIDTISTSTYYAESVKGRFTISRDNAKNTVYLQMNSLKPEDTAVYYCAAEYGPGLTEGLYYYWGQGTQVTVSS”, the “polyreactivity (PSR sort gate)” value is reported as “high polyreactivity”.

As for “QVQLQESGGGLVQAGGCLSCTASGTIFGQGDMGWSRQSPGKERELVATINDGASTYYADSVKGRFTISRDKAKNTVYLQKNSLKPDDTAVYYCAVLTDITTYFGYWGQGTQVTVSS”, the “polyreactivity (PSR sort gate)” value is on record as “low polyreactivity”.

On to “QVQLVESGGGLVQAGGSLRLICAASGSIFFPYDMGWYRQAPGKERELVASITRAGSTNYADSVKGRFTISRDNAKNTVYLQMNSLKPEDTAVYYCAARNYRQFEYGYWGQGTQVTVSS”, for which the “polyreactivity (PSR sort gate)” value is recorded as “low polyreactivity”.
